Results on seven molecules are retold here after patent US20260199502A1, “BINDING MOLECULE” (priority 2022, published 2026).

Data set [1] deals with panel of 14 peptides (UU0024, UU0070-UU0078, UU0080-UU0083) comprising the tag moiety. Description: SPR affinity of captured scFv against a peptide panel (Example 3). The class given is binding. The conditions noted are these: SPR single cycle kinetics, peptides 0.16 nM to 100 nM; to most target peptides in the tested panel. As to the method:
Affinity measurements of the IBIIICI mouse scFv and IBIIICI CDR graft scFv variants obtained as described in Examples 1-2 were performed by SPR using a Biacore T200 instrument (GE Healthcare) and single cycle kinetics. Anti-FLAG M2 antibody (Sigma-Aldrich) was immobilized onto a Series S CM5 chip by primary amine coupling using NHS-EDC chemistry according to the manufacturer's instruction, allowing capture of the respective scFv through the FLAG tags provided by the expression vector. A 5-fold dilution series comprising of five concentrations (0.16 nM to 100 nM) of different peptides (Table 2) was sequentially injected over the flow cells, allowing binding to the captured scFv. Following a dissociation phase, regeneration of the surface was accomplished under acidic conditions using 10 mM glycine-HCl at pH 2.1. By subtracting the response curve of a surface having an anti-FLAG antibody immobilized thereto (the reference surface), response unit sensorgrams for all peptides were obtained. Data was analyzed using BIAeval v.3.1 (GE Healthcare).

Data set [2] can be described thus: Melting temperature (Tm) determination by nanoDSF. The note with it: inflection point #1, 1.0 mg/ml in PBS, 20-95° C. at 1° C./min. The format is physicochemical. As to the method: In order to evaluate the stability of the purified scFv variants, the melting temperatures were determined by nanoDSF using a Prometheus NT.48 instrument (NanoTemper Inc). The nanoDSF technology measures the intrinsic fluorescence of a protein while it is being subjected to thermal denaturation, thereby characterizing the unfolding of the protein under native conditions.
The six purified IBIIICI CDR graft scFv variants were diluted to 1.0 mg/ml in PBS and loaded into a high sensitivity capillary (NanoTemper, #PR-C006) through capillary force. A melting temperature ramp was set to between 20° C. and 95° C., with heating at 1° C./min. Tryptophan emission was measured at 330 nm and 350 nm, and the calculated ratio was plotted against temperature to obtain melting curves for each variant. Tm values were deduced using the software PR ThermoControl (NanoTemper Inc).
(In general: DSF heats the sample and reads unfolding from a dye or from intrinsic fluorescence.)

Changes are numbered by the printed parent chain.

B1: IBIIICI CDR graft scFv variant NG (wt): original humanized IBIIICI CDR graft scFv, SEQ ID NO:54, NG at positions 62-63 of VH (protein)
scFv: QVQLVQSGAEVKKPGASVKVSCKASGFNIKDFNIHWVRQAPGQGLEWIGRIDPENGDAEYVPKFQGRVTMTRDTSTSTVYMELSSLRSEDTAVYYCTTGSYDLDVEYWGQGTLVTVSSGGGGSGGGGSGGGGSGGGGSDIQMTQSPSSLSASVGDRVTITCHASQNINVWLSWYQQKPGKAPKLLIYKASTLHTGVPSRFSGSGSGTDFTLTISSLQPEDFATYYCQQGQSYPLTFGQGTKLEIK
For the molecule B1, the binding affinity entry in data set [1] was “low nanomolar”. In data set [2], the Tm was 63.4 °C.

B2: IBIIICI CDR graft scFv variant GG: humanized scFv point mutated variant, SEQ ID NO:50 (protein)
scFv: B1 scFv with N55G
For B2, the Tm in data set [2] was determined as 62.6 °C.

B3: IBIIICI CDR graft scFv variant DG: humanized scFv point mutated variant, SEQ ID NO:52 (protein)
scFv: B1 scFv with N55D
On to B3, for which, in data set [2], the Tm came to 62.4 °C.

B4: IBIIICI CDR graft scFv variant NA: humanized scFv point mutated variant, SEQ ID NO:53 (protein)
scFv: B1 scFv with G56A
Turning to B4, the Tm came out at 60.8 °C in data set [2] and 61 °C in data set [2] (listed as IBIIICI CDR graft scFv NA).

B5: IBIIICI CDR graft scFv variant QG: humanized scFv point mutated variant, SEQ ID NO:51 (protein)
scFv: B1 scFv with N55Q
On to B5, for which the Tm in data set [2] came to 62.2 °C.

B6: IBIIICI CDR graft scFv variant SG: humanized scFv point mutated variant, SEQ ID NO:49 (protein)
scFv: B1 scFv with N55S
B6: the melting temperature (Tm) amounted to 64.3 °C in data set [2] and 64 °C in data set [2] (listed as IBIIICI CDR graft scFv SG).

B7: IBIIICI mouse scFv: known ancestral mouse scFv binding the peptide tag moiety, SEQ ID NO:25 (protein, listed as Mus musculus)
scFv: EVRLLQSGAALVRPGASVKLSCTASGFNIKDFNIHWVKQRPEQGLEWIGRIDPENGDAEYVPKFQVRATMTTDTSSNTVYLHLSSLTSGDTAVYYCTTGSYDLDVEYWGQGTTLTVSSGGGGSGGGGSGGGGSGGGGSELQMTQSPSSLSASLGDTVTITCHASQNINVWLSWYQQRPGNIPKLLIYKASTLHTGVPSRFRGSGSGTGFTLTISSLQPEDIATYYCQQGQSYPLTFGAGTKLELK
Take B7: the binding affinity result in data set [1] is reported as “low nanomolar”.

For orientation: Tm means the temperature at the midpoint of the melting transition.
